Source: the supplement of paper PMC12764529
± gives the half width of the 95% confidence interval.

Tests used:
[1] = folding stability dG unfold (combined trypsin and chymotrypsin); higher = more stable
Method in brief: (§1)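 Designed mini-proteins (under 80 residues, no cysteine) in a PA-tagged cDNA display construct were digested with trypsin and chymotrypsin. Each protease was used at 11 concentrations (threefold dilutions) plus a no-protease condition, followed by sequencing. K50 was inferred by Bayesian fitting of sequencing counts, and unfolding free energy was derived against a sequence-predicted unfolded-state K50 and a shared folded-state K50, per protease or combined. Only designs with AlphaFold2 dimer inter-PAE above 15 were kept.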

[2] = folding stability dG unfold from trypsin proteolysis; higher = more stable
Method in brief: as §1

[3] = folding stability dG unfold from chymotrypsin proteolysis; higher = more stable
Method in brief: as §1

Sequence | folding stability dG unfold [1] [kcal/mol] | folding stability dG unfold [2] [kcal/mol] | folding stability dG unfold [3] [kcal/mol]
SAGGSAGGGIEPGKKVKAKATLILPGGKPIPFTATFTPDYVTLDLGKGSLTVPVEFIAHLEIEDSAGGSAGG [r6_132_TrMRF] | 1.11 ± 0.053 | 0.371 ± 0.052 | 1.48 ± 0.079
SAGGSAMPADEVVEVREITDPATGKKVTVVRNKETGRYFVRVENPDGETEVFEVPGMTAEELEELASAGGSA [r15_295_TrROS_Hall] | 2.51 ± 0.1 | 2.33 ± 0.056 | 2.6 ± 0.051
SAGPPWEPVPITPEIIDKLADKLNPGFPISLQVYRHPDGRVKISIRNEGSGKEYTLVVDPDGDIEIEPSAGG [r19_70_TrROS] | 3.4 ± 0.1 | 3.07 ± 0.19 | 3.522 ± 0.033
SAGGSAGGSAGGMREVIRRPEASGEVTVEPLPEDERRPVDFGSDGVVLWREGDEVVVEPSAGGSAGGSAGGS [r10_817_JUSTAS] | 0.562 ± 0.08 | 0.00105 ± 0.087 | 0.72 ± 0.043
SAGGAMVPVNFTLKFTYTNPDGTPVFREKPVTLPFPESDPAAAEAAARARAEAEAAARGVEVDLEVSLSAGG [r13_853_JUSTAS] | 0.193 ± 0.11 | 0.0284 ± 0.12 | 0.219 ± 0.22
SAGGAEEARKAGRPVLLTVTVTAPGSGKVSTLPLLVPADRPVDVEALVAALFPADWAVTVSVSPVGGSAGGS [r8_127_JUSTAS] | 1.27 ± 0.11 | 1.32 ± 0.028 | 1.37 ± 0.051
SAGGSAGGSAGMEIEEEDGKLRLRLEAEFEVTVTTRNADGSTTETTARVRVELTFELPEESAGGSAGGSAGG [r17_103_TrROS_Hall] | 3.89 ± 0.22 | 3.67 ± 0.29 | 3.89 ± 0.12
SAGGMTITVKPPDGTVITYTSETLPEIIAKLDPNGTYTITIEVPKVDPSNGGARPIVKTYTVPKERISAGGS [r16_806_JUSTAS] | 1.19 ± 0.17 | 0.865 ± 0.11 | 1.21 ± 0.17
SAGGSAGGSSKTFKDPDGWTITVEPLDGGVKVEIYWPDGQRQEHLIPPGEPIKIDPNGWYIEISAGGSAGGS [r12_281_TrROS] | 1.69 ± 0.19 | 0.5 ± 0.069 | 2.11 ± 0.061
SAMLEEVEERAREIAERLREEYPDVEEFTVELELPLPDGRFLRVTVTIRRERDDEGDTFEVEVDVEEVDSAG [r14_788_TrMRF] | 4.46 ± 0.095 | 3.47 ± 0.13 | 4.91 ± 0.13
SAGGSAGGSAKTITITFLFDSPENAKDFVREIAQEDGMKIKVEWERDPEGWWWVTATIEVPSAGGSAGGSAG [r3_273_TrROS] | 3.14 ± 0.15 | 2.36 ± 0.1 | 3.48 ± 0.13
SAGGSAGGSAKIIIIEEDPEEAIRRVEELFGPGARIEPVRVVRVGDKVYVAVGIDIPASLASAGGSAGGSAG [r3_87_TrMRF] | 0.977 ± 0.044 | 1.094 ± 0.0092 | 0.9 ± 0.017
SASPELRKLAEEAAERLVKELGVEKLEFTFTAPVLRPVYTYDPGGNKTPRLEEEIVTYSVTAVVPPEAASAG [r14_232_TrMRF] | -0.0957 ± 0.2 | -0.0655 ± 0.14 | -0.21 ± 0.31
STLTLEELKERFPELSEEELEALAERLAALPAPVTVTVEVRPAPPPPVEERELSEEELLEARLRPGERVESA [r9_1024_TrROS_Hall] | 1.51 ± 0.098 | 0.624 ± 0.06 | 1.94 ± 0.056
SAGGSAGGSAGMTLLVKNEDGYLVKIEITEVEVDENGELHLKVKVEVLPPLEEVEEVEEESAGGSAGGSAGG [r17_536_TrROS_Hall] | 1.65 ± 0.17 | 1.4 ± 0.076 | 1.79 ± 0.054
SAGGSAGGSAGGGSFVLTRHTRTGLRRRVYFDPETGELTVELETGTESRTTLSPLSPDLSAGGSAGGSAGGS [r10_376_TrMRF] | 0.489 ± 0.058 | -0.215 ± 0.2 | 0.748 ± 0.064
SEDTVTIEVRAFPVKDKNGKPRFYVSIEFGNGPVSYPIPGLPEGMKEGETFTIEIPPENIKKVDISIMPYSA [r9_769_TrROS] | 1.97 ± 0.19 | 2.09 ± 0.12 | 2.09 ± 0.1
SAGSKEFPFESEFEFEGYRVKVEVKVRVEFDENGKPTKNFKPEIKIEIKPLPPKPVITAEEALKLDPEKSAG [r14_442_TrMRF] | 1.47 ± 0.3 | 0.114 ± 0.19 | 1.93 ± 0.14
SAGGSSMRKLIIIGPEGVTLERPIGPERTVEDVKAEWEAIGNVKFEEYPETGEVVVYLPEEALKEKSAGGSA [r2_164_JUSTAS] | 1.22 ± 0.08 | 0.601 ± 0.054 | 1.47 ± 0.029
SAGGSAMSIPLEELIEYVKKPGYKITEKKLPNGTLEITITNPKTGKTTKVTVYPPPTFSVEIKPDPSAGGSA [r15_442_JUSTAS] | 1.07 ± 0.091 | 1.28 ± 0.034 | 0.876 ± 0.12
SAGGSAGGSAGGMIKVTFKIPGKNETIEIDFDSEEELEEKFKELREKLGYNIEVVEIEESAGGSAGGSAGGS [r10_1087_JUSTAS] | 1.92 ± 0.2 | 2.19 ± 0.19 | 2.19 ± 0.12

Sequence | folding stability dG unfold [1] [kcal/mol] | folding stability dG unfold [2] [kcal/mol] | folding stability dG unfold [3] [kcal/mol]
MSEEELRELEERLAAPGPVEVRVEVEVREEEGDEPVFVFRVRYYRPEPGEELGEEEIVVPEEELEELLRELS [r1_415_TrMRF] | 1.93 ± 0.15 | 1.34 ± 0.065 | 2.31 ± 0.086
SPRTTVSFEVYMPPDQLKQNSIEDIADRVRDHFPGYKIKGIDIKFEPYPDPENGRPWVRVTVMIRVEPPESA [r9_1189_TrROS] | 2.96 ± 0.14 | 2.34 ± 0.085 | 3.28 ± 0.098
SAGGSAPPPKWIMFKIEATMPPNDLDNVVEELLKILFGFKIKNIEVEWEQVKDGYYKVPVWVMIRFSAGGSA [r15_138_TrROS] | 4.12 ± 0.4 | 3.01 ± 0.41 | 4.05 ± 0.093
PNFKIDIEIIKAEEVPPRPTDDGKPQPVRRIHIRIEVKGPPDQPPELANNIVEEIMAELQELGLPVHIHVWS [r1_305_TrROS] | 1.83 ± 0.21 | 1.62 ± 0.054 | 1.91 ± 0.075
SKGKKVLVIPATLPEAEEIAKALGLPPSLFPSSKKLVDALKEAFPENVVVVVAPAKPVTEEELKALAEGKSA [r9_74_TrMRF] | 0.678 ± 0.081 | 0.19 ± 0.037 | 0.93 ± 0.039
SAGGSAGGGHMPVTKTVQLPGRTVTLTYYPEKGTVKITFPEDGTEKTVPISPSETIEDVIKKLSSAGGSAGG [r6_166_JUSTAS] | 2.6 ± 0.061 | 2.32 ± 0.069 | 2.74 ± 0.036
SAGGMKEITLPNGVKITEVIEKDGYYYIKIYNKKTGKVYEIKVKKGEKIEIKFPKGSTVTKIEIVKKSAGGS [r16_123_TrROS_Hall] | 2.8 ± 0.095 | 1.7 ± 0.04 | 3.24 ± 0.066
SSKIEASATIEGDVITVTLVADSLSDLLAAIKELAEKLGVSFEILSISYKRLPNGKIIATVTARVKPEDLSA [r9_102_TrMRF] | 4.277 ± 0.039 | 3.24 ± 0.056 | 4.65 ± 0.048
SMVITLPVEDEEKLKELLDELKEQLEKAEEEGLETVTITITLEDGETLEITIDKNMTVEELLEQLEKALESA [r9_127_TrROS_Hall] | 2.61 ± 0.29 | 3.22 ± 0.33 | 1.57 ± 0.12
SAGGGMSTYTITINIVIDPKEKKVPKPPLKDPFKLPPLKTIPITITAETSDPAVAAALEKAVKEALGLSAGG [r13_35_JUSTAS] | 2 ± 0.069 | 1.73 ± 0.038 | 2.19 ± 0.054
SAGGSAGGSAGKKPPKVKVLELTFTLEDGYKVTVRLVENEDGELFLEIRIEPLPELPEEKSAGGSAGGSAGG [r11_998_TrROS_Hall] | 2.94 ± 0.13 | 1.79 ± 0.16 | 3.36 ± 0.14
SAMVVTYDPATGKITVNVTLYVEEPLTPEERAALAAAIKAALAAAHPDVDVTVTLHPAPSPEEVEKLAASAG [r14_406_JUSTAS] | 2.47 ± 0.12 | 2.92 ± 0.14 | 2.23 ± 0.058
SEKPEFKIVKIEVVEVDEDGKTVKVRVVVEGPDGRLYEVEMTLEELKKLLEELGIDLEDIKPGDVIVIPPSA [r9_1078_TrROS_Hall] | 3.58 ± 0.15 | 3.75 ± 0.11 | 3.09 ± 0.073
SAGGSAGGSADIGDPSKIKPKPLHFSFPVKIKLSFEYNGPDGVKKTFSLELTFTVVDKGLGSAGGSAGGSAG [r3_380_TrMRF] | 3.89 ± 0.44 | 3.15 ± 0.2 | 4.14 ± 0.21
SAGGSAGGSAMIVTEEGNTITITTLTNLTFPTTGATSTATTTTTITLPPTPLFPVPRTDNSLSAGGSAGGSA [r18_501_JUSTAS] | 0.44 ± 0.24 | -0.21 ± 0.11 | 0.819 ± 0.12
SAGGSSKTEIYYNPKKPYFLIKVTYKNGKTKEYPIKGKGMSLEELKKKAEEIVKELNSEEFKEVVFNPSAGG [r13_267_TrMRF] | 2.53 ± 0.14 | 2.02 ± 0.12 | 2.5 ± 0.082
SAGSLELPPGVSEVVYDPSSGVYSVRYPDGTLVQVDVLYEPDPFVDELHPVAFVSVYSPTSLLATAPLNSAG [r5_109_TrMRF] | 0.979 ± 0.067 | 0.821 ± 0.019 | 1.07 ± 0.11
SAGGKTVEVEFEAPESLSPEEIAAAILAAAPPGYFVKVEEVEVRDRPDGEKVILYKATFYDPDTGDFDSAGG [r13_12_TrMRF] | 2.73 ± 0.048 | 2.72 ± 0.081 | 2.804 ± 0.021
SAGGMLIIRIEIEIEKNGKKEKKEILIVAKTEEEAKKAAEKIAKEKGLKIKKIEILPFKSLEELKKALSAGG [r13_949_TrROS_Hall] | 3.11 ± 0.089 | 2.12 ± 0.061 | 3.45 ± 0.037
SAGGGSTSTSTSTSTDPATGATTTTTTTTVPTPDGSGTVTTTTTTVPGAAPDTDTAPVTTTTTTTPTPSAGG [r13_715_JUSTAS] | 2.32 ± 0.21 | 2.49 ± 0.1 | 2.14 ± 0.086
SAMPEKRFYTYEIPIPPGFKADEPFVGTVTLEEKTLPIKIGSIPDVPPDATVRLTVDLDTAEFRVELLPSAG [r14_554_TrMRF] | 1.16 ± 0.2 | 0.91 ± 0.1 | 1.3 ± 0.087
